Data as given in article PMC5622069.

Legend:
[1] = target: MnxG (Bacillus sp. PL-12); test: native MS; surface-induced dissociation (SID) of the isolated 29+ Mnx complex at a low collision voltage of 40 V, ion mobility-MS; hexamer assigned after removal of most bound copper with EDTA
[2] = target: MnxF (Bacillus sp. PL-12); test: as above

MnxE3F3 hexamer (complex) gave a stoichiometry N (MnxG per hexamer) [1] of 1.
Work on MnxE (natural protein) yielded a stoichiometry N (MnxE per MnxG) [1] of 3 and a stoichiometry N (MnxE per MnxF (3:3)) [2] of 1.
For MnxF (natural protein), the stoichiometry N (MnxF per MnxG) [1] was 3.
